Numbering of substitutions follows the chain as printed. Values joined by “and” are separate entries in the source; they are usually repeats but may differ in a detail not shown here. Identical values can stand only once. Each block holds one binder with its values, some of them ahead of it. Where no end group is shown, it is not given here. [ ]: non-standard residue; d: D form. pS = N[C@@H](COP(=O)(O)O)C(=O)O
Legend:
[1] = target: the molecule itself; test: SEC; analytical SEC, calibrated Superdex 200 Increase 10/300, 20 mM Tris-HCl pH 7.6, 150 mM NaCl, 0.1 mM EDTA, 3 mM β-mercaptoethanol, 1.2 mL/min; samples pre-incubated 30 min at room temperature; hydrodynamic radii from column calibration
[2] = target: T1, 14-3-3σ∆C mutant Clu3 (core of the chimeras) (human, UniProt P31947 1-231, 75EEK77 → 75AAA77); test: crystal structure; pCH2 (mono-directional peptide swap), 0.1 M bis-Tris pH 6.5, 2 M (NH4)2SO4, 20 °C, 3.2 Å, PDB 5OM0; conditions: both partners purified
T1 construct: three extra residues left at the N terminus after 3C cleavage of the hexahistidine tag; 14-3-3σ, human, C-terminally truncated (14-3-3σ∆C, residues 1-231), surface-entropy reduction mutant Clu3; Stood in the structures joined on one chain with the peptides (m1-m3); written as a molecule of its own for the pairs core/peptide; also called 14-3-3σ Clu3; 14-3-3σ∆C-Clu3; source: E. coli, as the …
T1 sequence: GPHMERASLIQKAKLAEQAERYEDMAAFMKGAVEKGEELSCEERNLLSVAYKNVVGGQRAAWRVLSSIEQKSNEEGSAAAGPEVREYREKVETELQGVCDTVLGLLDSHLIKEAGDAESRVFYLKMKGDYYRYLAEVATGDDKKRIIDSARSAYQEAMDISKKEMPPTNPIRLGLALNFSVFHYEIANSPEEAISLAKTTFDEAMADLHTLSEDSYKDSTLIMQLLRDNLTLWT

[3] = target: T1, 14-3-3σ∆C mutant Clu3 (core of the …); test: crystal structure; pCH3 (bi-directional peptide swap), 0.1 M bis-Tris-propane pH 6.5, 0.2 M (NH4)2SO4, 25% PEG 3350, 20 °C, 3.9 Å, PDB 5OMA; conditions: both partners purified
[4] = target: the molecule itself; test: crystal structure; pCH2 (mono-directional peptide swap), 0.1 M bis-Tris pH 6.5, 2 M (NH4)2SO4, 20 °C, 3.2 Å, PDB 5OM0
[5] = target: the molecule itself; test: crystal structure; pCH3 (bi-directional peptide swap), 0.1 M bis-Tris-propane pH 6.5, 0.2 M (NH4)2SO4, 25% PEG 3350, 20 °C, 3.9 Å, PDB 5OMA

B1: 14-3-3σ Clu3 – HSPB6 phosphopeptide chimera, phosphorylated (pCH1) (other)
chain: GPHMERASLIQKAKLAEQAERYEDMAAFMKGAVEKGEELSCEERNLLSVAYKNVVGGQRAAWRVLSSIEQKSNEEGSAAAGPEVREYREKVETELQGVCDTVLGLLDSHLIKEAGDAESRVFYLKMKGDYYRYLAEVATGDDKKRIIDSARSAYQEAMDISKKEMPPTNPIRLGLALNFSVFHYEIANSPEEAISLAKTTFDEAMADLHTLSEDSYKDSTLIMQLLRDNLTLWTGSGSLRRASAPL
modifications: phosphoserine at Ser16 of the HSPB6 peptide (RRApS16APL)
notes: three extra residues left at the N terminus after 3C cleavage of the hexahistidine tag; 14-3-3σ, human, C-terminally truncated (14-3-3σ∆C, residues 1-231), surface-entropy reduction mutant Clu3; flexible linker; HSPB6 peptide RRAS16APL with the natural Leu that precedes it (the Leu is told in words; Dimer through the 14-3-3σ core; also called CH1 co-expressed with PKA; 14-3-3/HSPB6 chimera CH1; …)
stoichiometry N [1]: 2 and 4

binding result [2]: binds
B2: Gli phosphopeptide (RRApS640DPAQA), as fused in pCH2 (peptide)
peptide: RRA[pS]DPAQA
notes: Gli peptide RRAS640DPAQA, said to be conserved in Gli1, Gli2 and Gli3; Tethered through GSGSL to Thr231 of 14-3-3σ Clu3; also called Gli1 phosphopeptide; Gli-derived phosphopeptide; source: E. coli, as the C-terminal part of chimera pCH2, phosphorylated by co-expressed PKA

binding result [3]: binds
B3: phosphorylated linker GSGpSLRR of pCH3 (peptide)
peptide: GSG[pS]LRR
notes: GSGS linker, the Leu kept from CH1 and the first two Arg of the StARD1 peptide; the stretch that was traced in the groove; also called cross-patching peptide of pCH3; source: E. coli, as part of the C-terminal tail of chimera pCH3, phosphorylated by co-expressed PKA

B4: 14-3-3σ Clu3 – Gli1 phosphopeptide chimera, phosphorylated (pCH2) (other)
chain: GPHMERASLIQKAKLAEQAERYEDMAAFMKGAVEKGEELSCEERNLLSVAYKNVVGGQRAAWRVLSSIEQKSNEEGSAAAGPEVREYREKVETELQGVCDTVLGLLDSHLIKEAGDAESRVFYLKMKGDYYRYLAEVATGDDKKRIIDSARSAYQEAMDISKKEMPPTNPIRLGLALNFSVFHYEIANSPEEAISLAKTTFDEAMADLHTLSEDSYKDSTLIMQLLRDNLTLWTGSGSLRRASDPAQA
modifications: phosphoserine at Ser640 of the Gli peptide
notes: three extra residues left at the N terminus after 3C cleavage of the hexahistidine tag; 14-3-3σ, human, C-terminally truncated (14-3-3σ∆C, residues 1-231), surface-entropy reduction mutant Clu3; Gli peptide RRAS640DPAQA, said to be conserved in Gli1, Gli2 and Gli3; the other grooves hold sulfate; also called 14-3-3σ fusion with Gli phosphopeptide; source: E. coli, co-expressed with His-tagged …
binding result [4]: binds

B5: 14-3-3σ Clu3 – StARD1 phosphopeptide chimera, phosphorylated (pCH3) (other)
chain: B4 chain with A242S, D244L, P245L, A246G, Q247S, A248R
modifications: phosphoserine at the second Ser of the GSGS linker (-GSGpS-); phosphorylation status of the target and neighbouring serines (RRSSLLGSR) not known
notes: three extra residues left at the N terminus after 3C cleavage of the hexahistidine tag; 14-3-3σ, human, C-terminally truncated (14-3-3σ∆C, residues 1-231), surface-entropy reduction mutant Clu3; StARD1 peptide around Ser57 (RRSS57LLGS); also called 14-3-3σ fusion with StARD1/BimEL phosphopeptide; source: E. coli, co-expressed with His-tagged catalytic subunit of mouse PKA, purified (subtractive …)
binding result [5]: binds

Source: PMC5607241, “Chimeric 14-3-3 proteins for unraveling interactions with intrinsically disordered partners” (Scientific Reports, 2017)
